Values joined by “and” are separate entries in the source; they are usually repeats but may differ in a detail not shown here. Equal entries are not always repeated.

L1CAM on L1CAM-high cells (LoVo) (Homo sapiens?), sequence (P32004 20-1257): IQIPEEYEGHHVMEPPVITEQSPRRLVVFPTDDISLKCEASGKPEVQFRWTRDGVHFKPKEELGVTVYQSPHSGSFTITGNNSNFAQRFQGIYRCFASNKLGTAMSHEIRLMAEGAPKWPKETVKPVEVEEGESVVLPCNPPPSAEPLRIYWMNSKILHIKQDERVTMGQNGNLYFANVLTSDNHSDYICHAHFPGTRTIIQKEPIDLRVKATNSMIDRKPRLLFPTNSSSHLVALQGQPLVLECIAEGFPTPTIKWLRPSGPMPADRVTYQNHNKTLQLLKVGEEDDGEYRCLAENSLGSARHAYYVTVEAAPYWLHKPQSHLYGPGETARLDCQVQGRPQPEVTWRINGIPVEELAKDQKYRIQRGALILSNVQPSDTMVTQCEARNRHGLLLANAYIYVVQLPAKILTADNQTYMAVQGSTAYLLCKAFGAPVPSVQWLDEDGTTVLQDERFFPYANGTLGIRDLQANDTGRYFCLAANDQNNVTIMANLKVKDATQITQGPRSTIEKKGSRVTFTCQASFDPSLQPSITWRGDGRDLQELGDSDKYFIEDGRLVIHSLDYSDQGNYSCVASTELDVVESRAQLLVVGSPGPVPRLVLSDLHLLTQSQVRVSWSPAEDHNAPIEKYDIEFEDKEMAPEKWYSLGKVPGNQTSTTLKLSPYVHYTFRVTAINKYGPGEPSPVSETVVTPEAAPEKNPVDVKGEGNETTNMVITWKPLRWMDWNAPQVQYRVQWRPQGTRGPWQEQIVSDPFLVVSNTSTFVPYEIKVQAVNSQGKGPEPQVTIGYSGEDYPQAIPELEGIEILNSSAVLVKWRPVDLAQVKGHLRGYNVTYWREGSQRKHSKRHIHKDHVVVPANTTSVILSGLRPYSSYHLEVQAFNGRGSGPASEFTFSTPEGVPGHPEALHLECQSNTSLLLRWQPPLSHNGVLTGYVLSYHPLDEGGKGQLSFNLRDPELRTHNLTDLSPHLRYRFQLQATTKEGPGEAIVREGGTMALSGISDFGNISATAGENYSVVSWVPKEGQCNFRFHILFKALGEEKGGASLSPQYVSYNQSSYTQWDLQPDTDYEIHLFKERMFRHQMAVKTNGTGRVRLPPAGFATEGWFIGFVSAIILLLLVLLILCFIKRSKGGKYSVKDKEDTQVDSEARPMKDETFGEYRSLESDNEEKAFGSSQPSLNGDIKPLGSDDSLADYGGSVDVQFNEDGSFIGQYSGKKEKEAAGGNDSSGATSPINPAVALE

One series has as its target L1CAM on L1CAM-high cells (LoVo) (Homo sapiens?) (UniProt P32004). Description: flow cytometry. The note with it: PBS, 4.5 g/L glucose, 5 mM MgCl2, 1 mg/mL BSA, 0.1 mg/mL herring sperm DNA; 30 min at 4 °C (or 25/37 °C); pH not stated.
“CAGATAGGGGGTAGCTCGGTCGTGTTTTTGGGTTGTTTGGTGGGTCTTCTG [yly20]”: the Kd is 0.0023 µM and 0.0019 µM and 0.0076 µM.

“AGCGCAGAAGGGGGTAGCTCGGTCGTGTTTTTGGGTTGTTTGGTGGGTCTTCTGCGCT [yly21-9-T]” returned a dissociation constant (Kd) of 0.107 µM.

“CAGATAGGGGGTAGCCCGGTCGTGTTTTTGGGTTGTTTGGTGGGTCTTCTG [yly20-T16C]” displayed a dissociation constant (Kd) of 0.0442 µM.

“CAGATAGGGGGTAGCTCGGTCGTGTTTTTGGGTTGTTTGGTGGGTATTCTG [yly20-C46A]” displayed a Kd of 0.0464 µM.

For the sequence “AGCGCAGATAGGGGGTAGCTCGGTCGTGTTTTTGGGTTGTTTGGTGGGTCTTCTGCGCT [yly21]”, the Kd is 0.0013 µM and 0.0009 µM and 0.0051 µM.

On to “CAGATAGGGGGTAGCTCGGTCGTGTTTCCGGGTTGTTTGGTGGGTCTTCTG [yly20-T2829C]”, for which the dissociation constant Kd worked out at 0.0559 µM.

Consider “CAGATAGGGGGTAGCTAGGTCGTGTTTTTGGGTTGTTTGGTGGGTCTTCTG [yly20-C17A]”, for which the Kd turned out to be 0.0034 µM.

Take “TTTGGGTTGTTTGGTGGGTCTTCTGCAGATAGGGGGTAGCTCGGTCGTGTT [yly20re]”: the Kd is 0.0042 µM and 0.0044 µM and 0.013 µM.

Regarding “GGGATAGGGGGTAGCTCGGTCGTGTTTTTGGGTTGTTTGGTGGGTCTTCTG [yly33]”, the Kd is 0.0062 µM and 0.012 µM and 0.0414 µM.

Consider “CAGAAGGGGGTAGCTCGGTCGTGTTTTTGGGTTGTTTGGTGGGTCTTCTG [yly20-5-T]”, for which the dissociation constant (Kd) turned out to be 0.112 µM.

As for “CAGATAGGGGGTAGCTCGGTCGTGATTTTGGGTTGTTTGGTGGGTCTTCTG [yly20-T25A]”, the Kd was determined as 0.0017 µM.

Turning to “CAGATAGGGGGTAGCTCGGTCGTGTTTCTGGGTTGTTTGGTGGGTCTTCTG [yly20-T28C]”, the Kd is 0.0053 µM.

As for “CGGATAGGGGGTAGCTCGGTCGTGTTTTTGGGTTGTTTGGTGGGTCTTCTG [yly34]”, the dissociation constant Kd was 0.0034 µM and 0.0072 µM and 0.0187 µM.

The sequence “CAGATAGGGGGTAGCTCGGTCGTGTTTTTGGGCTGTTTGGTGGGTCTTCTG [yly20-T33C]” yielded a Kd of 0.0095 µM.

In turn, “CAGATAGGGGGTAGCTCGGTCGTGTTTTCGGGTTGTTTGGTGGGTCTTCTG [yly20-T29C]” gave an equilibrium dissociation constant (Kd) of 0.0042 µM.

For “AGGATAGGGGGTAGCTCGGTCGTGTTTTTGGGTTGTTTGGTGGGTCTTCTG [yly12]”, the Kd is 0.0216 µM and 0.111 µM.

“CAGATAGGGGGTAGCTCGGTCATGTTTTTGGGTTGTTTGGTGGGTCTTCTG [yly20-G22A]” came in with a dissociation constant Kd of 0.0013 µM.

Sequence “CAGATAGAGGGTAGCTCGGTCGTGTTTTTGGGTTGTTTGGTGGGTCTTCTG [yly20-G8A]” registered a Kd of 0.0189 µM.

“CAGATAGGGGGTAGCCCGGTCGTGTTTTCGGGTTGTTTGGTGGGTCTTCTG [yly20-T1629C]” had a Kd of 0.155 µM.

“CAGATAGGGGGTAGCTCGGTCGTGTTTTTGGGTTATTTGGTGGGTCTTCTG [yly20-G35A]” came in with a Kd of 0.0531 µM.

For the sequence “CAGATAGGGGGTAGCTCGGTCGTGTTTTTGGGTTGTTTGGTGGGCCTTCTG [yly20-T45C]”, the Kd was 0.0669 µM.

The series is the same for the next values; noted with them: PBS, 4.5 g/L glucose, 5 mM MgCl2, 1 mg/mL BSA, 0.1 mg/mL herring sperm DNA; 30 min at 4 °C (or 25/37 °C); pH not stated; cited from earlier work.
For “TAGGGGGTAGCTCGGTCGTGTTTTTGGGTTGTTTGGTGGGTCTTCTG [yly16]”, the Kd was 0.33 µM.

As for “AGGATAGGGGGTAGCTCGGTCGTGTTTTTGGGTTGTTTGGTGGGTCTTCTG [yly12]”, the Kd was 0.0035 µM.

On to “AGGATAGGGGGTAGCTCGGTCGTGTTTTTGGGTTGTTTGGTGGGTCTT [yly13]”, for which the Kd is 0.369 µM.

In the case of “ATAGGGGGTAGCTCGGTCGTGTTTTTGGGTTGTTTGGTGGGTCTTCTG [yly14]”, the Kd was 0.092 µM.

In general, Kd refers to the equilibrium constant for the complex coming apart.

Source of the values: PMC10218236.
